The text below walks through data of patent US20200360486A1.

Data set [1] concerns the target Cy3-conjugated K9-C-peptide (C-peptide bound to the elastin-like polypeptide composed of 9 [(VPGVG)11(VPGKG)1(VPGVG)1] repeating units), as hydrogel on an amine array. Put plainly: cell-based or functional assay.
Data set [2] deals with Cy3-conjugated K9-C-peptide (C-peptide bound to the elastin-like polypeptide composed of 9 [(VPGVG)11(VPGKG)1(VPGVG)1] repeating units), as hydrogel on an amine array.
Sequence of Cy3-conjugated K9-C-peptide (C-peptide bound to the elastin-like polypeptide composed of 9 [(VPGVG)11(VPGKG)1(VPGVG)1] repeating units), as hydrogel on an amine array (chain, as listed by the source): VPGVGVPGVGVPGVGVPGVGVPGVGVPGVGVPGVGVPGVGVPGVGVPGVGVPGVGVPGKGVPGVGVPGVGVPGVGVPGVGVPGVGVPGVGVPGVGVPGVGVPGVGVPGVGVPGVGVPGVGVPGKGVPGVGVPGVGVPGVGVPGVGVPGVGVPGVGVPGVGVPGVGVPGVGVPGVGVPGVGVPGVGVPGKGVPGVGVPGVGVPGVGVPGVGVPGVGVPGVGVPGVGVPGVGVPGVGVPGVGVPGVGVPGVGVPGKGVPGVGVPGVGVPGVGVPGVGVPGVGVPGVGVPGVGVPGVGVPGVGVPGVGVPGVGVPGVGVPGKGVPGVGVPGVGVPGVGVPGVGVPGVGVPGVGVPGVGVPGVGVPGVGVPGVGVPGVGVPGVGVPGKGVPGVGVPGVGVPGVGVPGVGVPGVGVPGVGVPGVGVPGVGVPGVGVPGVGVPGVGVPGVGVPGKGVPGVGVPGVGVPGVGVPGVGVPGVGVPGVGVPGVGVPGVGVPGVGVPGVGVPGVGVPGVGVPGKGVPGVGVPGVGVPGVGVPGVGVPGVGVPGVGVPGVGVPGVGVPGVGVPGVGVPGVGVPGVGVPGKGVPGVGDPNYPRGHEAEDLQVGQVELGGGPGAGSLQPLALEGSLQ

In turn, collagenase-2 (enzyme) gave an EC50 of on-chip degradation of Cy3-conjugated K9-C-peptide hydrogel versus protease concentration in data set [1] of 0.17 U/ml.
As for elastase-2, in data set [2], the “highest degradation rate of the hydrogel, at 120 min (time course)” value was found to be 72.3% at 120 min; the “hydrogel degraded after the first elastase-2 treatment (repeated every 30 min)” value was 48.6+/-0.8%; the “maximum degradation rate, after the fifth elastase-2 treatment” value was 89.7+/-0.2%.
For the substance elastase-2 (enzyme), the EC50 of on-chip degradation of Cy3-conjugated K9-C-peptide hydrogel versus protease concentration in data set [1] stood at 0.23 U/ml.
The same measure, in the same setting: the same measure for pepsin (enzyme): 510 U/ml.
Same read-out and setting: the result for trypsin (enzyme) reads 125 U/ml.
